Measurements reported in patent publication US20100254901, “Compositions comprising nucleic acid aptamers” (published 2010).

Tests used:
[1] = test system: Bovine gamma globulin (BGG) (Bos taurus); experiment: FP; details: control protein
[2] = target: Bovine serum albumin (BSA) (Bos taurus, UniProt P02769 P02769:25-607); experiment: FP; control protein; details: label: 5'-fluorescein
From the text: (§1) A fluorescent polarization (FP) assay was used to test the affinity of several oligonucleotide sequences to CEA (Table 4). The initial studies focused on 5 oligonucleotides. Clone 22 and clone 26 contained the sequences with the highest identity to the G-rich motif. The aptamers were synthesized with fluorescein at their 5′ ends and binding was analysis using the Beacon 2000 instrument equipped with a 530 nm emission filter and a 490 nm excitation filter from Pan Vera Corp. (Madison Wis.).
(§2) In the FP assay, fluorescently labelled aptamers are added to the protein. Binding is detected by an increase in fluorescent polarization cause by the decrease in rotation of the protein bound fluorescein (FIG. 4A). The Kd is calculated by determining the CEA concentration at the half maximal mP value as determined from plots of averaged stable mP data as shown in FIGS. 4B and C. […] Unfortunately, others members of the CEA superfamily are not available commercially.

[3] = target: T1, Carcinoembryonic antigen (CEA) (Homo sapiens, UniProt P06731 P06731:35-685); experiment: FP; physiological binding buffer; details: tags: Calbiochem; label: 5'-fluorescein
From the text: as §1, §2

[4] = target: T1, Carcinoembryonic antigen (CEA); experiment: FP; primer region absent; physiological binding buffer; details: tags: Calbiochem; label: 5'-fluorescein
From the text: as §1, §2

[5] = target: T1, Carcinoembryonic antigen (CEA); experiment: FP; physiological binding buffer; table header prints nM-1, text nM; details: tags: Calbiochem; label: 5'-fluorescein
From the text: as §1, §2
FIG. 4. Binding of clone26bases 1-50 to CEA monitored by FP in a physiological binding buffer using 4 nM aptamer. (A) Shown is the mP as a function a reading number (sample #). CEA (8 nM) was added after the tenth reading. (B) Shown is the average mP vs aptamer concentration. (C) Shown is the average mP vs CEA concentration within the linear range.

T1 sequence (P06731 35-685, one chain of several): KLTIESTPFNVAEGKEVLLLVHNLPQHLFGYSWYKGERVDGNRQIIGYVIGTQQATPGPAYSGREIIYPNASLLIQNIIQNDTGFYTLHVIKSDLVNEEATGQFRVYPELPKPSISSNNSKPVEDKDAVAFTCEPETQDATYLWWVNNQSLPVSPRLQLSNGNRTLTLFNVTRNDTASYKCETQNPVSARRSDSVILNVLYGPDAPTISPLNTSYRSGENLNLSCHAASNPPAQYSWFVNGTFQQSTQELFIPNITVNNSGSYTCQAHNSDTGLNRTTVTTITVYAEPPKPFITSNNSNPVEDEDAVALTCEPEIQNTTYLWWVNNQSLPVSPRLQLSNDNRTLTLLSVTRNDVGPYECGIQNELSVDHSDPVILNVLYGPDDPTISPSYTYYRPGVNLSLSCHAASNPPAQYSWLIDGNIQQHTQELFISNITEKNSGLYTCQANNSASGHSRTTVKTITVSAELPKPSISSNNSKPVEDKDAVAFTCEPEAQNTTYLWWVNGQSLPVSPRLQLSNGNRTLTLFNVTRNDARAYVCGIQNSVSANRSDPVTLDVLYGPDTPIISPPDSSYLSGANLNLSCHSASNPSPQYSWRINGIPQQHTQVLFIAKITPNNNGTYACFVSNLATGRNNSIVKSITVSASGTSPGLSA
Bovine serum albumin (BSA), sequence (P02769 25-607, one chain of several): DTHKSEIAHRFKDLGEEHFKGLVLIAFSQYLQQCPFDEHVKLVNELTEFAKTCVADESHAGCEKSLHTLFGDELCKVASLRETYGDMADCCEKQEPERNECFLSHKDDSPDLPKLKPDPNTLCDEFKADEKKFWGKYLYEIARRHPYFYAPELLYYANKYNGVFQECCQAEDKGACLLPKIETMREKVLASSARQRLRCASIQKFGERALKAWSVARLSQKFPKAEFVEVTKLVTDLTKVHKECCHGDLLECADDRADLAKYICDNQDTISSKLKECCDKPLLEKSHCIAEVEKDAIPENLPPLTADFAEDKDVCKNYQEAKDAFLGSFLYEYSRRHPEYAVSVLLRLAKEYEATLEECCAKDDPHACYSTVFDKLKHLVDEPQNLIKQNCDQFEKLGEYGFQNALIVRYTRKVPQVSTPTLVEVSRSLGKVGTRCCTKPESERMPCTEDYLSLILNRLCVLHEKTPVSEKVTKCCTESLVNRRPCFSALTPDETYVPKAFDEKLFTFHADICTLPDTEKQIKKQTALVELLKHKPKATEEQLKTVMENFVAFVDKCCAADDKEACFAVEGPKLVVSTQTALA

Molecule | Kd [1] [nM] | Kd [2] [nM] | other results
GGGGGAGGGGGCGACGCGATACCC [clone22bases19-42] | 250 |  | 
ATACCAGCTTATTCAATT [5' primer] | 400 |  | 
ATACCAGCTTATTCAATTGGGGGAGGGGGCGACGCGATACCC [clone22bases1-42] | 500 |  | 
ATACCAGCTTATTCAATTGGGGTAGGGGGCGAAGCGATACCCTAATCAGC [clone26bases1-50] | 100 |  | 
ATACCAGCTTATTCAATTGGGGGAGGGGGCGACGCGATACCC (ssDNA) [clone22bases1-42] |  | 200 | Kd [3]: 5 nM
ATACCAGCTTATTCAATT (ssDNA) [5' primer] |  | 300 | Kd [3]: 5 nM
GGGGGAGGGGGCGACGCGATACCC (ssDNA) [clone22bases19-42] |  | 400 | Kd [4]: 20 nM
ATACCAGCTTATTCAATTGGGGTAGGGGGCGAAGCGATACCCTAATCAGC (ssDNA) [clone26bases1-50] |  | 100 | Kd [5]: 4 nM
